From article PMC10204870, “Analysis of aptamer-target binding and molecular mechanisms by thermofluorimetric analysis and molecular dynamics simulation” come the findings set out here.

The data set deals with T1, alpha-fetoprotein (AFP) (Homo sapiens, UniProt P02771 19-609).
T1 sequence: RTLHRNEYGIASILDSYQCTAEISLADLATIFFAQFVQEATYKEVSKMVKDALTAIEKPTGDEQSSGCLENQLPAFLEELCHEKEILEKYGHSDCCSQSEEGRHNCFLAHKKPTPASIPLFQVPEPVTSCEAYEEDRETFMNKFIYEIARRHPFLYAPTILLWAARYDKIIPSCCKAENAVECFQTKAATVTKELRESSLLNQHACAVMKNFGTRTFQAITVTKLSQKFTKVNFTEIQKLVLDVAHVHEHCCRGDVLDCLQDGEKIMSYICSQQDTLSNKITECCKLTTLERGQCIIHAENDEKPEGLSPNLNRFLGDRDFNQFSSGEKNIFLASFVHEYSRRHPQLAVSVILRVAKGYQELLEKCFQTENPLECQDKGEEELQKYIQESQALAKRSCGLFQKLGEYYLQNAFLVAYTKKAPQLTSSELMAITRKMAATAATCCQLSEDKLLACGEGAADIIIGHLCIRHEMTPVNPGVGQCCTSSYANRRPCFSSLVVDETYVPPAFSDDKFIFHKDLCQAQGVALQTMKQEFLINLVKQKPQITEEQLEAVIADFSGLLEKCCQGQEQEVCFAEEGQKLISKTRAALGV
The data set can be described thus: thermofluorimetric analysis (EvaGreen melting curves); 1.25-80 nM and 1-5 nM aptamer; HEPES buffer with Na+, K+, Mg2+, Ca2+; 20 mM HEPES-Na, 120 mM NaCl, 4 mM KCl, 2 mM MgCl2, 1 mM CaCl2, pH 7.35 (aptamer diluent); 30 min at room temperature, then melt 4-80 C with EvaGreen; AFP stock. The following applies: protein: recombinant; label: EvaGreen dye (non-covalent).

B1: AP273 (ssDNA)
DNA: GTGACGCTCCTAACGCTGACTCAGGTGCAGTTCTCGACTCGGTCTTGATGTGGGTCCTGTCCGTCCGAACCAATC
In the case of B1, the binding result was “binds”.
